Key:
Caspase-3 = Caspase-3 enzymatic activity in H9c2 cardiac myoblasts; format: cell-based
Text: After ethical committee approval, all patients in this study gave written consent for sample collection and molecular analysis prior to inclusion. Patients were carefully selected by physicians from the Department of Cardiology, Toulouse University Hospital, prior to coronary by-pass surgery. Bioinformatics. Microarray expression data from human heart samples were downloaded from the GEO repository (GSE1145). This series consisted of 107 myocardial samples collected from patients undergoing cardiac transplantation whose failure arises from different etiologies (e.g. idiopathic dilated cardiomyopathy, ischemic cardiomyopathy, valvular cardiomyopathy, and hypertrophic cardiomyopathy) and from “normal” organ donors whose hearts cannot be used for transplants. Arrays were intensity normalized and hierarchical clustering (average group linkage, Pearson correlation, threshold r=0.8) was applied to identify groups of co-expressed genes. ApoO expression levels were plotted for the 107 human hearts tested and used to define relevant molecular pathways using both Toppgene and Ingenuity Pathway Analysis (Ingenuity systems, Redwood City, Calif., USA). ApoO subcellular localization was predicted using Mitopred, mitoprot and YLoc. Animals: All animal Studies followed the INSERM Institute Animal Facility guidelines and were approved by the animal care committees of the INSERM I2MC UMR 1048. All animal procedures were performed according to the guidelines of the French Ministry of Agriculture. Animals were housed at the Toulouse I2MC animal facility in a room lit 12 h per day (6 AM-6 PM) at an ambient temperature of 22+/−1° C. […] All ApoO sequences within the expression vectors were verified by DNA double strand sequencing using ABI PRISM®BigDye™ Terminator version 3.1 Ready reaction cycle sequencing kit (Life Technologies SAS, Villebon sur Yvette) and loaded on an ABI 3130XL DNA sequencing instrument (Life Technologies SAS, Villebon sur Yvette). […]

Bax = Bax mRNA levels in cardiac myoblasts; format: cell-based; settings: ApoO cells vs control (FIG. 9f)
Text: After ethical committee approval, all patients in this study gave written consent for sample collection and molecular analysis prior to inclusion. Patients were carefully selected by physicians from the Department of Cardiology, Toulouse University Hospital, prior to coronary by-pass surgery. Bioinformatics. Microarray expression data from human heart samples were downloaded from the GEO repository (GSE1145). This series consisted of 107 myocardial samples collected from patients undergoing cardiac transplantation whose failure arises from different etiologies (e.g. idiopathic dilated cardiomyopathy, ischemic cardiomyopathy, valvular cardiomyopathy, and hypertrophic cardiomyopathy) and from “normal” organ donors whose hearts cannot be used for transplants. Arrays were intensity normalized and hierarchical clustering (average group linkage, Pearson correlation, threshold r=0.8) was applied to identify groups of co-expressed genes. […] All ApoO sequences within the expression vectors were verified by DNA double strand sequencing using ABI PRISM®BigDye™ Terminator version 3.1 Ready reaction cycle sequencing kit (Life Technologies SAS, Villebon sur Yvette) and loaded on an ABI 3130XL DNA sequencing instrument (Life Technologies SAS, Villebon sur Yvette). […]

B1: ApoO: 198-amino acid apolipoprotein, SEQ ID NO: 1; tested by overexpression from expression vectors or transgene (protein, listed as Homo sapiens)
chain: MFKVIQRSVGPASLSLLTFKVYAAPKKDSPPKNSVKVDELSLYSVPEGQSKYVEEARSQLEESISQLRHYCEPYTTWCQETYSQTKPKMQSLVQWGLDSYDYLQNAPPGFFPRLGVIGFAGLIGLLLARGSKIKKLVYPPGFMGLAASLYYPQQAIVFAQVSGERLYDWGLRGYIVIEDLWKENFQKPGNVKNSPGTK
B1 was tested, and the “activity of Caspase-3” value (Caspase-3; ApoO cells vs control (FIG. 9g)) was “increase”, the “apoptotic effect of increasing doses of palmitate (Caspase-3 activity)” value (Caspase-3; ApoO overexpressing cells vs control (FIG. 9h)) was “dramatically amplified” and the “expression of Bax” value (Bax) was “increase”.

From patent US10272135B2, “Apolipoprotein O and fragments thereof for inducing apoptosis in a cancerous cell” (INSERM (INSTITUT NATIONAL DE LA SANTÉ ET DE LA RECHERCHE …, priority 2014, dated 2019)
